Data published in patent US20110268740A1.

B1: scFv-E040-msFcγ2c (Fc fusion)
chain: DADPAQAAELVMTQSPDSLAVSLGERATINCKSSQSVLYSSNNENYLAWYQQKPGQPPKLLIYWASTRESGVPDRFSGSGSGTDFTLTINSVQAEDVAVYYCQQYFMTPITFGQGTRLEIKGGSSRSSSSGGGGSGGGGEVQLLESGGALVQPGRSLRLSCRTSGLNFGDYPINWVRQAPGKGLEWVGFIKSKSYGVTTEFAASVEGRFTISRDDSRGIAYLQMNSLKTEDTAVYYCTSSSGFLYYFDYWGQGTLVTVSSASTKGPSVTSGQAGRKLEPRVPITQNPCPPLKECPPCAAPDLLGGPSVFIFPPKIKDVLMISLSPMVTCVVVDVSEDDPDVQISWFVNNVEVHTAQTQTHREDYNSTLRVVSALPIQHQDWMSGKEFKCKVNNRALPSPIEKTISKPRGPVRAPQVYVLPPPAEEMTKKEFSLTCMITGFLPAEIAVDWTSNGRTEQNYKNTATVLDSDGSYFMYSKLRVQKSTWERGSLFACSVVHEGLHNHLTTKTISRSLGK

Legend:
[1] = molecular target: M2e consensus peptide (free, soluble) (Influenza A virus (consensus of H1, H2 and H3 subtypes of human Influenza A viruses)); experiment: Friguet ELISA, free M2e peptide in solution
[2] = molecular target: M2e-short (Influenza A virus (consensus)); experiment: ELISA, apparent affinity, purified scFv-msFcγ2c on immobilised M2e-short

| Binder | EC50 (scFv-E040-msFcγ2c) [µM] | Kd [1] [µM] | EC50 [2] [pM] |
| --- | --- | --- | --- |
| SLLTEVETPIRNEWGC (modifications not checked) [M2e-short] | 35.5 | – | – |
| SLLTEVETPIRNEWGCRCNDSSD (modifications not checked) [M2e consensus peptide (free, soluble)] | 21.3 | – | – |
| B1 | – | 0.004 | 90.2 |
